From the Immune Epitope Database (IEDB)

Assays:
Test in all cases: IEDB peptide-MHC binding, purified MHC/direct/fluorescence; filed as Kd, often an IC50 or EC50 that approximates it; ≥ and ≤ were set here for values at or beyond the usual limits of such assays
HLA-B*44:02 = biological target: HLA-B*44:02
HLA-B*27:05 = biological target: HLA-B*27:05
HLA-B*07:02 = biological target: HLA-B*07:02
HLA-A*02:01 = biological target: HLA-A*02:01
HLA-B*46:01 = biological target: HLA-B*46:01
HLA-A*69:01 = biological target: HLA-A*69:01
HLA-A*26:01 = biological target: HLA-A*26:01
HLA-B*40:01 = biological target: HLA-B*40:01
HLA-B*08:02 = biological target: HLA-B*08:02
HLA-A*03:01 = biological target: HLA-A*03:01
HLA-B*58:01 = biological target: HLA-B*58:01
HLA-B*15:01 = biological target: HLA-B*15:01
HLA-A*01:01 = biological target: HLA-A*01:01
HLA-A*24:02 = biological target: HLA-A*24:02
HLA-A*31:01 = biological target: HLA-A*31:01
HLA-B*15:09 = conditions: source organism: Vibrio vulnificus CMCP6
HLA-A*11:01 = biological target: HLA-A*11:01
HLA-B*08:01 = biological target: HLA-B*08:01
HLA-B*18:01 = conditions: source organism: Giardia lamblia ATCC 50803
[1] = source organism: Vibrio parahaemolyticus
[2] = source organism: Vibrio vulnificus CMCP6
[3] = source organism: Giardia lamblia ATCC 50803
[4] = source organism: Influenza A virus (A/chicken/Hunan/fg/2004(H5N1))
[5] = source organism: Influenza B virus (B/Chiba/447/98)

Sequence: ASEELMDKY
- Kd (HLA-B*44:02; [1]): ≥ 20 µM
- Kd (HLA-B*27:05; [1]): ≥ 20 µM
- Kd (HLA-B*07:02; [1]): ≥ 20 µM
- Kd (HLA-A*02:01; [1]): ≥ 20 µM
- Kd (HLA-B*46:01; [1]): ≥ 20 µM
- Kd (HLA-A*69:01; [1]): ≥ 20 µM
- Kd (HLA-A*26:01; [2]): ≥ 20 µM
- Kd (HLA-B*40:01; [1]): ≥ 20 µM
- Kd (HLA-B*08:02; [2]): ≥ 20 µM
- Kd (HLA-A*03:01; [1]): ≥ 20 µM
- Kd (HLA-B*58:01; [1]): ≥ 20 µM
- Kd (HLA-B*15:01; [1]): ≥ 20 µM
- Kd (HLA-A*01:01; [1]): 0.0272 µM
- Kd (HLA-A*24:02; [1]): ≥ 20 µM
- Kd (HLA-A*31:01; [1]): ≥ 20 µM
- Kd (HLA-B*15:09): ≥ 20 µM

Sequence: SVFHEHIFK
- Kd (HLA-B*44:02; [3]): ≥ 20 µM
- Kd (HLA-B*27:05; [3]): ≥ 20 µM
- Kd (HLA-B*07:02; [3]): ≥ 20 µM
- Kd (HLA-A*02:01; [3]): ≥ 20 µM
- Kd (HLA-A*69:01; [3]): ≥ 20 µM
- Kd (HLA-A*26:01; [3]): ≥ 20 µM
- Kd (HLA-B*40:01; [3]): ≥ 20 µM
- Kd (HLA-A*11:01; [3]): 0.0092 µM
- Kd (HLA-A*03:01; [3]): 0.154 µM
- Kd (HLA-B*58:01; [3]): ≥ 20 µM
- Kd (HLA-B*15:01; [3]): ≥ 20 µM
- Kd (HLA-A*01:01; [3]): ≥ 20 µM
- Kd (HLA-A*24:02; [3]): ≥ 20 µM
- Kd (HLA-A*31:01; [3]): 0.134 µM

Sequence: YSHGTGTGY
- Kd (HLA-B*27:05; [4]): ≥ 20 µM
- Kd (HLA-B*07:02; [4]): ≥ 20 µM
- Kd (HLA-A*02:01; [4]): ≥ 20 µM
- Kd (HLA-A*69:01; [4]): ≥ 20 µM
- Kd (HLA-B*08:01; [4]): ≥ 20 µM
- Kd (HLA-A*26:01; [5]): 0.02 µM
- Kd (HLA-B*40:01; [4]): ≥ 20 µM
- Kd (HLA-B*08:02; [5]): ≥ 20 µM
- Kd (HLA-A*11:01; [4]): ≥ 20 µM
- Kd (HLA-A*03:01; [4]): ≥ 20 µM
- Kd (HLA-B*58:01; [4]): 0.905 µM
- Kd (HLA-B*15:01; source organism: Influenza A virus (A/Puerto Rico/8/34/Mount Sinai(H1N1))): 0.099 µM
- Kd (HLA-A*24:02; [4]): ≥ 20 µM
- Kd (HLA-A*31:01; [4]): ≥ 20 µM

Sequence: IVKYKQYLK
- Kd (HLA-B*44:02; [3]): ≥ 20 µM
- Kd (HLA-B*27:05; [3]): ≥ 20 µM
- Kd (HLA-B*07:02; [3]): ≥ 20 µM
- Kd (HLA-A*02:01; [3]): ≥ 20 µM
- Kd (HLA-B*46:01; [3]): ≥ 20 µM
- Kd (HLA-A*69:01; [3]): ≥ 20 µM
- Kd (HLA-B*08:01; [3]): ≥ 20 µM
- Kd (HLA-B*40:01; [3]): ≥ 20 µM
- Kd (HLA-B*08:02; [3]): ≥ 20 µM
- Kd (HLA-A*03:01; [3]): 0.0815 µM
- Kd (HLA-B*58:01; [3]): ≥ 20 µM
- Kd (HLA-B*15:01; [3]): ≥ 20 µM
- Kd (HLA-A*01:01; [3]): ≥ 20 µM
- Kd (HLA-A*24:02; [3]): ≥ 20 µM
- Kd (HLA-B*18:01): ≥ 20 µM
